Legend:
[1] = biological target: human neonatal Fc receptor (FcRn) (human) (UniProt P55899)
[2] = biological target: monkey FcRn (monkey (cynomolgus monkeys in the same paragraph)) (UniProt Q8SPV9)
[3] = biological target: monkey FcRn (monkey (cynomolgus monkeys in the same paragraph)) (UniProt Q8SPV9); remark: listed apart in the source
[4] = biological target: human neonatal Fc receptor (FcRn) (human) (UniProt P55899); assay: SPR

Substance	serum half-life in hFcRn mice (mFcRn-/-, hFcRn+), 2 mg/kg i.v. [1] [days]	serum half-life in cynomolgus monkeys, 7.5 mg/kg i.v. [2] [days]	serum half-life in cynomolgus monkeys, 4 mg/kg i.v. [3] [days]	fold improvement in FcRn affinity [4] [fold]
Xtend-EGFR (humanized cetuximab huC225 IgG1 with the Fc substitutions M428L/N434S) (antibody)	13.9	4.7	–	–
Xtend-VEGF (bevacizumab IgG1 with the Fc substitutions M428L/N434S) (antibody)	12	–	31.1	11

Source: PMC2855492
